Values of other authors, collected in publication PMC4987277.

Molecular target: C3d C3d (Homo sapiens) (UniProt P01024)
Sequence (P01024 1002-1303): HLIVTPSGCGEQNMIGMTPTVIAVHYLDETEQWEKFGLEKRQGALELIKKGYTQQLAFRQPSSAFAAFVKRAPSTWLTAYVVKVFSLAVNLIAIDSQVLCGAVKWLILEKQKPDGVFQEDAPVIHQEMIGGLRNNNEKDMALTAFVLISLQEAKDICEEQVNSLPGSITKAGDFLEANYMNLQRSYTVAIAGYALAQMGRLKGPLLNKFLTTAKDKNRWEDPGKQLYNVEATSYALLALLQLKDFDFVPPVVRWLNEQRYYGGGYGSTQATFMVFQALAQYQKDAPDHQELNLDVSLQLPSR

Chain of CR2 (P20023 21-971): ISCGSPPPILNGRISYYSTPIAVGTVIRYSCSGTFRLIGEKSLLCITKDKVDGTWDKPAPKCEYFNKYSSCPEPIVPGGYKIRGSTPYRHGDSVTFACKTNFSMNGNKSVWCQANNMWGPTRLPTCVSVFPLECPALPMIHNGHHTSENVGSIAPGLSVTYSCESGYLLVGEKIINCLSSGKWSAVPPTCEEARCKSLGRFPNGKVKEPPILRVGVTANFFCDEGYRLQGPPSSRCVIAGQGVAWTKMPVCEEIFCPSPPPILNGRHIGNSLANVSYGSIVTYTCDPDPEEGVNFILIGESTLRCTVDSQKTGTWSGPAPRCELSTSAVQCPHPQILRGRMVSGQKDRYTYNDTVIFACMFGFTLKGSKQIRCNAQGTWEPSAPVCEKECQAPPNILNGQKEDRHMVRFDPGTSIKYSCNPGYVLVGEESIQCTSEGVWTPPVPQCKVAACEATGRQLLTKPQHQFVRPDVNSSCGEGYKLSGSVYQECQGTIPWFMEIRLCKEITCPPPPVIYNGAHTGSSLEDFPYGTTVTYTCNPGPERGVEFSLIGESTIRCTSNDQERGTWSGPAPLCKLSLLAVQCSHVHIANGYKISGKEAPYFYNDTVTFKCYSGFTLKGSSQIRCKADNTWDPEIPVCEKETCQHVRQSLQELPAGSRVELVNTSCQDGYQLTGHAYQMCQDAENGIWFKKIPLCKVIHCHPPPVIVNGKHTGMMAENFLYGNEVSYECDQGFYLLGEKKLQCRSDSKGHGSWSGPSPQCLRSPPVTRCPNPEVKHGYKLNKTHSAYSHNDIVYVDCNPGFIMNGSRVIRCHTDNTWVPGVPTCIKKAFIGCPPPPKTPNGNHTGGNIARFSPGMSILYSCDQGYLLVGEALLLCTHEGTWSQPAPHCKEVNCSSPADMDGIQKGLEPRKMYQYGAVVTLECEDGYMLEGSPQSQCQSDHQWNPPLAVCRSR

For CR2 (from UniProt P20023), the Kd is listed as 0.5 µM.
